Reference: the RNAGym collection of RNA variant scans (doi:10.1073/pnas.2313332121)
Variants at the floor of the assay were thinned out.

B1: TPR 5TU (parent)
chain: GGAUCUUCUCGAUCUAACAAAAAAGACAAAUCUGCCACAAAGCUUGAGAGCAUCUUCGGAUGCAGAGGCGGCAGCCUUCGGUGGCGCGAUAGCGCCAACGUUCUCAACUAUGACACGCAAAACGCGUGCUCCGUUGAAUGGAGUUUAUCAUG

Variants of: B1
Assay: polymerase ribozyme fitness, log enrichment relative to wild type (log ratio); higher = more active; in vitro selection for triplet polymerase activity
Procedure, shortened: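 Mutant libraries of each subunit of a heterodimeric triplet polymerase ribozyme were built by PCR and transcribed. Each library went through one round of in vitro selection in triplicate: annealing with biotinylated primer, partner subunit and triplets, frozen incubation at −7 °C, gel excision of extended constructs, streptavidin-bead capture and RT-PCR. Input and output libraries were Illumina-sequenced; only genotypes with ≥10 input reads and ≥1 read per output were kept. Fitness is log2(genotype enrichment/wild-type enrichment), using inverse-variance-weighted replicate averages.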

Variant | polymerase ribozyme fitness (log ratio)
GGAUCUUCUCGAUCUAACAAAAAAGACAAAUCUGCCACAAAGCUUGAGAGCAUCUUCGGAUGCAGAGGCGGCAGCCUUCGGUCGCGCGAUAGCGCCAACGUUCUCAACUAUGACACGCAAAACGAGUGCUCCGUUUAAUGGAGUUUAUCAUG [G83C C125A G136U] | -2.54
GGAUCUUCUCGAUCUAACAAAAAAGACAAAUCUGCCACAAAGCUUGAGAGCAUCUUCGGAUGCAGAGGCGGCAGCCUUCGGUCGCGCGAUAACGCCAACGUUCUCAACUAUGACACGCAAAACGCGUGCUCCGUUGAAUGGAGUUUAUCAUG [G83C G92A] | ≤ -4.2
GGAUCUUCUCGAUCUAACAAAAAAGACAAAUCUGCCACAAAGCUUGAGAGCAUCUUCGGAUGCAGAGGCGGCAGCCUUCGGUCUCGUGAUAGCGCCAACGUGCUCAUCUAUGACACGCAAAACGCGUGCUCCGUUGAAUGGAGUUUAUCAUG [G83C G84U C87U U102G A107U] | ≤ -4.2
GGAUCUUCUCGAUCUAACAAAAAAGACAAAUCUGCCACAAAGCUUGAGAGCAUCUUCGGAUGCAGAGGCGGCAGCCUUCGGUCGCGCGAUAGCGCCAACGUUCUCAACUAUGACACGCAAAACGCGUGCUCCGUUGAAUGGAGCUUAUCAUG [G83C U144C] | -1.58
GGAUCUUCUCGAUCUAACAAAAAAGACAAAUCUGCCACAAAGCUUGAGAGCAUCUUCGGAUGCAGAGGCGGCAGCCUUCGGUCGCGCGAUAGCGCCAACGUUCUCAACUAUGACACGCAAAACGCGUGCUCCAUUGAAUGGAGUUUAUCAUG [G83C G133A] | -3.62
GGAUCUUCUCGAUCUAACAAAAAAGACAAAUCUGCCACAAAGCUUGAGAGCAUCUUCGGAUGCAGAGGCGGCAGCCUUCGGUCGCGCGAUAGCGCCAACGUUCUCAACUAUGACACGCAAAACGCGUGCUCCGUUAAAUGGAGUUUAUCAUG [G83C G136A] | -0.101
GGAUCUUCUCGAUCUAACAAAAAAGACAAAUCUGCCACAAAGCUUGAGAGCAUCUUCGGAUGCAGAGGCGGCAGCCUUCGGUCGCGCGAUAGCGCCAACGUUCUCAACUAUGACACGCAAAACGCGUGCUCCGUUCAAUGGAGUUUAUCAUG [G83C G136C] | -4.09
GGAUCUUCUCGAUCUAACAAAAAAGACAAAUCUGCCACAAAGCUUGAGAGCAUCUUCGGAUGCAGAGGCGGCAGCCUUCGGUCGCGCGAUAGCGCCAACGUUCUGAACUAUGACACGCAAAACGCAUGCUCCGUUGAAUGGAGUUUAUCAUG [G83C C105G G126A] | -2.8
GGAUCUUCUCGAUCUAACAAAAAAGACAAAUCUGCCACAAAGCUUGAGAGCAUCUUCGGAUGCAGAGGCGGCAGCCUUCGGUCGCGCGAUAGCGGCAACGUUCUCAACUAUGACACGCAAAACGCGUGCUCCGUUGAAUGGAGUUUAGCAUG [G83C C95G U148G] | ≤ -4.2
GGAUCUUCUCGAUCUAACAAAAAAGACAAAUCUGCCACAAAGCUUGAGAGCAUCUUCGGAUGCAGAGGCGGCAGCCUUCGGUCGCGCGAUAGCGCCAACGUUCUCAACUAUGACACGAAAAACGCGUGCUCCGUUGAAUGGGGUUUAUCAUG [G83C C118A A142G] | -2.35
GGAUCUUCUCGAUCUAACAAAAAAGACAAAUCUGCCACAAAGCUUGAGAGCAUCUUCGGAUGCAGAGGCGGCAGCCUUCGGUCGGGCGAUAGCGCCAACGUUAUCAACUAUGACACGCAAAACGCGUGCUCCGUUGAAUGGAGUUUAUCAUG [G83C C85G C103A] | ≤ -4.2
GGAUCUUCUCGAUCUAACAAAAAAGACAAAUCUGCCACAAAGCUUGAGAGCAUCUUCGGAUGCAGAGGCGGCAGCCUUCGGUCGCGCGACAGCGCCAACGUUCUCACCUAUGACAAGCAAAACGCGCGCUCCGUUGAAUGGAGUUUAUCCUG [G83C U90C A107C C116A U127C A150C] | ≤ -4.2
GGAUCUUCUCGAUCUAACAAAAAAGACAAAUCUGCCACAAAGCUUGAGAGCAUCUUCGGAUGCAGAGGCGGCAGCCUUCGGUCGCGCGAUAGCGCCAACGUUCUCAACUAUGACACGCAAAACGCGUGCUGCGUUGAAUGGAGUUUAUCAUG [G83C C131G] | -3.32
GGAUCUUCUCGAUCUAACAAAAAAGACAAAUCUGCCACAAAGCUUGAGAGCAUCUUCGGAUGCAGAGGCGGCAGCCUUCGGUCGCGCGAUAGCGCCAACGUUCUCAACUAUGACACGCAAAACGAGUGCUCCGUUGAAUGGAGAUUAUCAUG [G83C C125A U144A] | -2.36
GGAUCUUCUCGAUCUAACAAAAAAGACAAAUCUGCCACAAAGCUUGAGAGCAUCUUCGGAUGCAGAGGCGGCAGCCUUCGGUCGCGCGAUAGCGCCAACGUUCUCAACAAUGACCCGCAAAACGCGUGCUCCGUUGAAUCGAGUUUAUCAUG [G83C U109A A115C G140C] | ≤ -4.2
GGAUCUUCUCGAUCUAACAAAAAAGACAAAUCUGCCACAAAGCUUGAGAGCAUCUUCGGAUGCAGAGGCGGCAGCCUUCGGUCGCGCGAUAGCGCCAACGUUCUCAACUAUGACACGCAAAACGCAUGCUCCGUUGAAUGGAGUUUAUCAUG [G83C G126A] | 0.0538
GGAUCUUCUCGAUCUAACAAAAAAGACAAAUCUGCCACAAAGCUUGAGAGCAUCUUCGGAUGCAGAGGCGGCAGCCUUCGGUCGCGCGAUAGCGCCAACGUUCUCAACUAUGACACGCAAAACGCUUGCUCCGUUGAAUGGAGUUUAUCAUG [G83C G126U] | 0.246
GGAUCUUCUCGAUCUAACAAAAAAGACAAAUCUGCCACAAAGCUUGAGAGCAUCUUCGGAUGCAGAGGCGGCAGCCUUCGGUCGCGCGAUAGCGCCAACGUUCUCAACUAUGACACGCAAAACGCGUGCUCAGUUGAAUGGAGUUUAUCAUG [G83C C132A] | -2.69
GGAUCUUCUCGAUCUAACAAAAAAGACAAAUCUGCCACAAAGCUUGAGAGCAUCUUCGGAUGCAGAGGCGGCAGCCUUCGGUCGCGCGAUAGCGCCAACGGUCUCUACUAUGACACGCAAAACGCGUGCUCCGUUGAAUGGAGUUUAUCAUG [G83C U101G A106U] | -3.95

Variant | polymerase ribozyme fitness (log ratio)
GGAUCUUCUCGAUCUAACAAAAAAGACAAAUCUGCCACAAAGCUUGAGAGCAUCUUCGGAUGCAGAGGCGGCAGCCUUCGGUCGCGCGAUAGCGCCAACGUUCUCAACUAUGACACGCAAAACGCGUGCUCCGUUGAAUGGAGUUAAUCAUG [G83C U146A] | -0.565
GGAUCUUCUCGAUCUAACAAAAAAGACAAAUCUGCCACAAAGCUUGAGAGCAUCUUCGGAUGCAGAGGCGGCAGCCUUCGGUCGCGCGAUAGCGCCAACGUUCUCAACUAUGACACUCAAAACGCGUGCUCCGUUGAAUGGAGUUUAUCAUG [G83C G117U] | -1.62
GGAUCUUCUCGAUCUAACAAAAAAGACAAAUCUGCCACAAAGCUUGAGAGCAUCUUCGGAUGCAGAGGCGGCAGCCUUCGGUCGCGCGAUAGCGCCAACGUUCUCAACUAUGACAAGCAAAACGCGUGCUCCGUUGAAUGGAGUUGAUCAUG [G83C C116A U146G] | -3.27
GGAUCUUCUCGAUCUAACAAAAAAGACAAAUCUGCCACAAAGCUUGAGAGCAUCUUCGGAUGCAGAGGCGGCAGCCUUCGGUCGCGCGAUAGCGCCAACGUUCUCAACUAUGACAAGCAACACGCGUGCUCCGUUGAAUGGAGUUUAUCAUG [G83C C116A A121C] | 0.158
GGAUCUUCUCGAUCUAACAAAAAAGACAAAUCUGCCACAAAGCUUGAGAGCAUCUUCGGAUGCAGAGGCGGCAGCCUUCGGUCGCGCGAUAGCGCCAACGUUCUCAACUAUGACACGCAAAACGCGUGCUCCGUUGAAUGGAGUUUAGCAUA [G83C U148G G152A] | -3.67
GGAUCUUCUCGAUCUAACAAAAAAGACAAAUCUGCCACAAAGCUUGAGAGCAUCUUCGGAUGCAGAGGCGGCAGCCUUCGGUCGCGCGAUAGCGCUAACGUUCUCAACUAUGACACGCAAAACGCGUGCUCCGUUGAAUGGAGUUUUUCAUA [G83C C96U A147U G152A] | -1.98
GGAUCUUCUCGAUCUAACAAAAAAGACAAAUCUGCCACAAAGCUUGAGAGCAUCUUCGGAUGCAGAGGCGGCAGCCUUCGGUCUCGCGAUAGCGCCAACGUUCUCAACUCUGACACGCAAAACGCGUGCUCCGUUGAAUGGAGUUUAUCAUG [G83C G84U A110C] | ≤ -4.2
GGAUCUUCUCGAUCUAACAAAAAAGACAAAUCUGCCACAAAGCUUGAGAGCAUCUUCGGAUGCAGAGGCGGCAGCCUUCGGUCGCGCGAUAGGGCCAACGUUCUCAACUAUGACACGCAAAACGCGUGCUCCGUUGAAUGGAGUUUAUCAUG [G83C C93G] | ≤ -4.2
GGAUCUUCUCGAUCUAACAAAAAAGACAAAUCUGCCACAAAGCUUGAGAGCAUCUUCGGAUGCAGAGGCGGCAGCCUUCGGUCGCGCGAUAGUGCCAACGUUCUCAACUAUGACACGCAAAACGCGUGCUCCGUUGAAUGGAGUUUAUCAUG [G83C C93U] | -2.49
GGAUCUUCUCGAUCUAACAAAAAAGACAAAUCUGCCACAAAGCUUGAGAGCAUCUUCGGAUGCAGAGGCGGCAGCCUUCGGUUGCGCGAUAGCGCCGACGUUCUCAACUAUGACACGCAAAACGCGUGCUCCGUUGAAUGGUGUUUAUCAUG [G83U A97G A142U] | -3.29
GGAUCUUCUCGAUCUAACAAAAAAGACAAAUCUGCCACAAAGCUUGAGAGCAUCUUCGGAUGCAGAGGCGGCAGCCUUCGGUCGCGCGAUAGCGCCAACGUUCUCAACUAUGACACGUAAAACGCGUGCUCCGUUGAAUGGAGUUUAUCAUG [G83C C118U] | -1.34
GGAUCUUCUCGAUCUAACAAAAAAGACAAAUCUGCCACAAAGCUUGAGAGCAUCUUCGGAUGCAGAGGCGGCAGCCUUCGGUCGCGCGAUAGCGCCAACGUUCUCAACUAUGACACGGAAAACGCGUGCUCCGUUGAAUGGAGUUUAUCAUG [G83C C118G] | -0.968
GGAUCUUCUCGAUCUAACAAAAAAGACAAAUCUGCCACAAAGCUUGAGAGCAUCUUCGGAUGCAGAGGCGGCAGCCUUCGGUCGCGCGAUAGCGCCAACGUUCUCAACUAUGACAUGCACAACGCGUGCUCCGUGGAAUGGAGUUUAUCAUG [G83C C116U A120C U135G] | -3.87
GGAUCUUCUCGAUCUAACAAAAAAGACAAAUCUGCCACAAAGCUUGAGAGCAUCUUCGGAUGCAGAGGCGGCAGCCUUCGGUCGCGCGAUAGUGCAAACGUUCUCAACUAUGACACGCAAAACGCGUGCUCCGUUGAAUGGAGUUUAUCAUG [G83C C93U C96A] | -1.71
GGAUCUUCUCGAUCUAACAAAAAAGACAAAUCUGCCACAAAGCUUGAGAGCAUCUUCGGAUGCAGAGGCGGCAGCCUUCGGUCGCGCGAUAGCGCCAACGUUCUCAACUAUGACACGCAAAACGUGUGCUCCGUUGAAUGGAGUUGAUCAUG [G83C C125U U146G] | -3.89
GGAUCUUCUCGAUCUAACAAAAAAGACAAAUCUGCCACAAAGCUUGAGAGCAUCUUCGGAUGCAGAGGCGGCAGCCUUCGGUCGCGCGAUAGCGCCAACGUUCUCAACUAUGACACGCAAAACGCGUGCUCCGUUGAAUGGAGUUUAUCAUC [G83C G152C] | -3.16
GGAUCUUCUCGAUCUAACAAAAAAGACAAAUCUGCCACAAAGCUUGAGAGCAUCUUCGGAUGCAGAGGCGGCAGCCUUCGGUCGCGCGAUAGCGCCAACGUUCUCAACUAUGACACGCAAAACGCGUGCUCCGUUGAAUGGAGUGUAUCAUG [G83C U145G] | -0.686
GGAUCUUCUCGAUCUAACAAAAAAGACAAAUCUGCCACAAAGCUUGAGAGCAUCUUCGGAUGCAGAGGCGGCAGCCUUCGGUCGCGCGAUAGCGCCAACGUUCUCAACUAUGACACGCAAAACGCGUGCUCCGUUGAAUGGAGUCUAUCAUG [G83C U145C] | -2.18
GGAUCUUCUCGAUCUAACAAAAAAGACAAAUCUGCCACAAAGCUUGAGAGCAUCUUCGGAUGCAGAGGCGGCAGCCUUCGGUCGCGCGAUAGCGCCAACGUUCUCAACUAUGACACGCAAAACGCGUGCUCCGUUCAAUGGAGUUGAUCAUG [G83C G136C U146G] | -3.41
